Data from US20240216518A1 (HARPOON THERAPEUTICS, published 2024).

What was measured:
[1] = target: T1, stub:Active control; αCD19 T:A:C stub:Active; assay: ELISA on recombinant human CD3ε
T1 construct: Single-chain trispecific; also called TriTAC-XR active drug; constitutively active CD19 TriTAC

[2] = target: T2, FLT3 TriTAC; assay: biolayer interferometry
T2 construct: Single-chain trispecific; also called constitutively active FLT3 TriTAC
T2 sequence (chain, as listed by the source): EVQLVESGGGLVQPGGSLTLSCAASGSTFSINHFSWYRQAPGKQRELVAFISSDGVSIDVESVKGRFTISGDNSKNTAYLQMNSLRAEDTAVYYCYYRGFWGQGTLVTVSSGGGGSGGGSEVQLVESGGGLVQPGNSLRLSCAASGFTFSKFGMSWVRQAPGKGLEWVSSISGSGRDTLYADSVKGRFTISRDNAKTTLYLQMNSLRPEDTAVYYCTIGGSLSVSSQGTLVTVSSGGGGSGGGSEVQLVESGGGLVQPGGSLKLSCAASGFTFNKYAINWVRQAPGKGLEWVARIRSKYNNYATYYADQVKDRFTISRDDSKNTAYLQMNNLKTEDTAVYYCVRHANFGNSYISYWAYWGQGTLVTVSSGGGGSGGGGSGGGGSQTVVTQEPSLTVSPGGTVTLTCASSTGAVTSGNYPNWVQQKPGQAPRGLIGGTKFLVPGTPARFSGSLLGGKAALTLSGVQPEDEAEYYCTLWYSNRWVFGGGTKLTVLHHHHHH

T1 sequence (chain, as listed by the source): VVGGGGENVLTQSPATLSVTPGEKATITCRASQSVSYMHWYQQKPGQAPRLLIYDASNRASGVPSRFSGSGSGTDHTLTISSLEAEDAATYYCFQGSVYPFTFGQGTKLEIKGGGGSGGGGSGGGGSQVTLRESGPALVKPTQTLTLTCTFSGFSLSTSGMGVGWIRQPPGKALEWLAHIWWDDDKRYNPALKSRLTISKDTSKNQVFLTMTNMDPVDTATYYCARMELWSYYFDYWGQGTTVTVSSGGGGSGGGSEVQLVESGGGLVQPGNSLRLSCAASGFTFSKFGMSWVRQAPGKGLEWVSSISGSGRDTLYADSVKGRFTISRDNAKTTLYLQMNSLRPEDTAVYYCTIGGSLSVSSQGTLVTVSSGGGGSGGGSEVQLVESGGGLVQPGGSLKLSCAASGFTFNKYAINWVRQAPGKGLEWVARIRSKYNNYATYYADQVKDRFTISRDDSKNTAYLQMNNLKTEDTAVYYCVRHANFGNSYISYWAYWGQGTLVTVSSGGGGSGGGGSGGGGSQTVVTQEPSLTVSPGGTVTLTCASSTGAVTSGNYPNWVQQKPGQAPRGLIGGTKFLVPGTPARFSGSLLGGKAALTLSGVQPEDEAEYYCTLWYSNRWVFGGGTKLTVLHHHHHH

Binder | binding result [1] | Kd [2] [nM]
recombinant human CD3ε (receptor, UniProt P07766 23-126, looked up) DGNEEMGGITQTPYKVSISGTTVILTCPQYPGSEILWQHNDKNIGGDEDDKNIGSDEDHLSLKEFSELEQSGYYVCYPRGSKPEDANFYLYLRARVCENCMEMD | binds | –
cynomolgus FLT3 (receptor) NQDLPVIKCVLINHKNNDSSVGKSSSYPMVSESPEDLGCALRPQSAGTVYEAATVEVDVSASITLQVLVDTPGNISCLWVFKHSSLNCQPHFDVQNRGVVSMVILKMTETQAGEYLLFIQSEATNYTIVFTVSIRNTLLFTLRRPYFRKMENQDALVCISESVPEPIVEWVLCDSQGESCKEESPAVVKKEEKVLHELFGTDIRCCARNELGRECTRLFTIDLNQTPQTTLPQLFLKVGEPLWIRCKAVHVNHGFGLTWELENKALEEGSYFEMSTYSTNRTMIRILFAFVSSVARNDTGYYTCSSSKHPSQSALVTIVEKGFINATNSSEDYEIDQYEEFCFSVRFKAYPQIRCTWTFSRKAFPCEQKALDDGYSVSKFCNHKHQPGEYIFHAENGDAQFTKMFTLNIRRKPQVLAEASASQASCSSDGYPLPSWTWKKCSDKSPNCTEDIPEGVWNRKANRKVFGQWVSSSTLNMSEAMKGFLVKCCAYNSLGTSCETILLNSPGPFPFIQDS | – | 2.7
cynomolgus CD3 (receptor) QDGNEEMGSITQTPYQVSISGTTVILTCSQHLGSEAQWQHNGKNKEDSGDRLFLPEFSEMEQSGYYVCYPRGSNPEDASHHLYLKARVCENCMEMD | – | 3.3
cynomolgus albumin (other, UniProt A2V9Z4 25-608, looked up, also called cynomolgus serum albumin) DTHKSEVAHRFKDLGEEHFKGLVLVAFSQYLQQCPFEEHVKLVNEVTEFAKTCVADESAENCDKSLHTLFGDKLCTVATLRETYGEMADCCAKQEPERNECFLQHKDDNPNLPPLVRPEVDVMCTAFHDNEATFLKKYLYEVARRHPYFYAPELLFFAARYKAAFAECCQAADKAACLLPKLDELRDEGKASSAKQRLKCASLQKFGDRAFKAWAVARLSQKFPKAEFAEVSKLVTDLTKVHTECCHGDLLECADDRADLAKYMCENQDSISSKLKECCDKPLLEKSHCLAEVENDEMPADLPSLAADYVESKDVCKNYAEAKDVFLGMFLYEYARRHPDYSVMLLLRLAKAYEATLEKCCAAADPHECYAKVFDEFQPLVEEPQNLVKQNCELFEQLGEYKFQNALLVRYTKKVPQVSTPTLVEVSRNLGKVGAKCCKLPEAKRMPCAEDYLSVVLNRLCVLHEKTPVSEKVTKCCTESLVNRRPCFSALELDEAYVPKAFNAETFTFHADMCTLSEKEKQVKKQTALVELVKHKPKATKEQLKGVMDNFAAFVEKCCKADDKEACFAEEGPKFVAASQAALA | – | 4.4
